Results reported in article PMC11347163, “Structural analysis of the BisI family of modification dependent restriction endonucleases”.

Legend:
[1] = molecular target: NhoI (Nitrolancea hollandica); test: crystal structure; sitting drop vapor diffusion at 18°C; proteins crystallised without DNA and as specific complexes with tetra-methylated GCNGC dsDNA, with Ca2+
[2] = molecular target: Eco15I_Ntd (N-terminal catalytic domain of Eco15I) (Escherichia coli strain 541-15); test: as above
NhoI = molecular target: T1, NhoI (UniProt I4EG67); test: crystal structure; Ca2+ in active site; SPR: 20 mM HEPES pH 7.8, 50 or 150 mM KCl, 1 mM CaCl2, 1 mM DTT, 0.05% Tween-20, 25 C; EMSA: 20 mM HEPES pH 7.8, 50 mM KCl, 1 mM DTT, 1 mM CaCl2, on ice 30 min, unlabeled unmodified oligo or salmon sperm DNA competitor; conditions: protein: recombinant; tags: 6xHis-SUMO removed by Ulp1; chain copies: 2; blunt
T1 sequence: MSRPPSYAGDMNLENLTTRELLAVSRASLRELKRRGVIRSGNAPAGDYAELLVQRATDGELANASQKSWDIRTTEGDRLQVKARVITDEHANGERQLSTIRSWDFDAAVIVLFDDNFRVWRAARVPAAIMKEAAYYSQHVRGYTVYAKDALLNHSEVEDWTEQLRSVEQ

[3] = molecular target: T2, Eco15I_Ntd (N-terminal catalytic domain of Eco15I) (UniProt A0A0L6ZWS4); test: as above; conditions: protein: recombinant; tags: 6xHis-SUMO removed by Ulp1; chain copies: 2; blunt
T2 sequence: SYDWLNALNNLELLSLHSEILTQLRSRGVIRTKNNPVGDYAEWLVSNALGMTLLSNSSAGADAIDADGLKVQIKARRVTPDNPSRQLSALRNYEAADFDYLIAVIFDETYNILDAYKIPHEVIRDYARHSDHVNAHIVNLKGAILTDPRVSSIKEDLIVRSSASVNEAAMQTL

[4] = molecular target: T2, Eco15I_Ntd (N-terminal catalytic domain …); test: SPR; 1 mM Ca2+; 50 mM KCl; SPR: 20 mM HEPES pH 7.8, 50 or 150 mM KCl, 1 mM CaCl2, 1 mM DTT, 0.05% Tween-20, 25 C; EMSA: 20 mM HEPES pH 7.8, 50 mM KCl, 1 mM DTT, 1 mM CaCl2, on ice 30 min, unlabeled unmodified oligo or salmon sperm DNA competitor; conditions: protein: recombinant; tags: 6xHis-SUMO removed by Ulp1; chain copies: 2; label: 5' biotin
[5] = molecular target: T3, Eco15I_Ctd (C-terminal domain of Eco15I) (UniProt A0A0L6ZWS4); test: as above; conditions: protein: recombinant; label: 5' biotin
T3 sequence: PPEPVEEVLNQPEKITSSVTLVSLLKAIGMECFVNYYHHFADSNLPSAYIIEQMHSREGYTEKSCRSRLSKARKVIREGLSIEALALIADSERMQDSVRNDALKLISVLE

Molecule: NhoI (enzyme)
- stoichiometry N [1]: 2

Molecule: Eco15I_Ntd (N-terminal catalytic domain of Eco15I) (domain or fragment)
- stoichiometry N [2]: 2

B1: NhoI co-crystal duplex, tetramethylated GCAGC (dsDNA)
DNA 1: CTGCAGCTC
DNA 2: GAGCTGCAG
modifications: 5mC at positions 4 and 7 of strand 1; 5mC at positions 4 and 7 of strand 2
- binding result (NhoI): binds

B2: Eco15I_Ntd co-crystal duplex, tetramethylated GCAGC (dsDNA)
DNA 1: AAGCAGCAA
DNA 2: TTGCTGCTT
modifications: 5mC at positions 4 and 7 of strand 1; 5mC at positions 4 and 7 of strand 2
- binding result [3]: binds

B3: SPR duplex, four 5mC in GCNGC (dsDNA)
DNA 1: CGGTTGAGCAGCACCTCAGA
DNA 2: TCTGAGGTGCTGCTCAACCG
modifications: 5mC at both internal and both external cytosines
- binding result [4]: binds
- binding result [5]: no binding
